Assay results published in patent US20250333441A1, “POLYPEPTIDE INHIBITORS AND USES THEREOF” (Neuracle Science Co., Ltd., priority 2021, published 2025).

B1: LRRC4B (364-713): FLAG-tagged LRRC4B deletion construct, amino acids 364-713 of SEQ ID NO: 2 (SEQ ID NO: 55) (protein)
chain: PVIVEPPTDLNVTEGMAAELKCRTGTSMTSVNWLTPNGTLMTHGSYRVRISVLHDGTLNFTNVTVQDTGQYTCMVTNSAGNTTASATLNVSAVDPVAAGGTGSGGGGPGGSGGVGGGSGGYTYFTTVTVETLETQPGEEALQPRGTEKEPPGPTTDGVWGGGRPGDAAGPASSSTTAPAPRSSRPTEKAFTVPITDVTENALKDLDDVMKTTKIIIGCFVAITFMAAVMLVAFYKLRKQHQLHKHHGPTRTVEIINVEDELPAASAVSVAAAAAVASGGGVGGDSHLALPALERDHLNHHHYVAAAFKAHYSSNPSGGGCGGKGPPGLNSIHEPLLFKSGSKENVQETQI
modifications: FLAG tag
B2: LRRC4B (453-713): FLAG-tagged LRRC4B deletion construct, amino acids 453-713 of SEQ ID NO: 2 (SEQ ID NO: 56) (protein)
chain: VSAVDPVAAGGTGSGGGGPGGSGGVGGGSGGYTYFTTVTVETLETQPGEEALQPRGTEKEPPGPTTDGVWGGGRPGDAAGPASSSTTAPAPRSSRPTEKAFTVPITDVTENALKDLDDVMKTTKIIIGCFVAITFMAAVMLVAFYKLRKQHQLHKHHGPTRTVEIINVEDELPAASAVSVAAAAAVASGGGVGGDSHLALPALERDHLNHHHYVAAAFKAHYSSNPSGGGCGGKGPPGLNSIHEPLLFKSGSKENVQETQI
modifications: FLAG tag
B3: LRRC4B (36-576): full-length ectodomain of LRRC4B protein, amino acids 36-576 of SEQ ID NO: 2 (SEQ ID NO: 5) (protein)
chain: AGGGGVAVTSAAGGGSPPATSCPVACSCSNQASRVICTRRDLAEVPASIPVNTRYLNLQENGIQVIRTDTFKHLRHLEILQLSKNLVRKIEVGAFNGLPSLNTLELFDNRLTTVPTQAFEYLSKLRELWLRNNPIESIPSYAFNRVPSLRRLDLGELKRLEYISEAAFEGLVNLRYLNLGMCNLKDIPNLTALVRLEELELSGNRLDLIRPGSFQGLTSLRKLWLMHAQVATIERNAFDDLKSLEELNLSHNNLMSLPHDLFTPLHRLERVHLNHNPWHCNCDVLWLSWWLKETVPSNTTCCARCHAPAGLKGRYIGELDQSHFTCYAPVIVEPPTDLNVTEGMAAELKCRTGTSMTSVNWLTPNGTLMTHGSYRVRISVLHDGTLNFTNVTVQDTGQYTCMVTNSAGNTTASATLNVSAVDPVAAGGTGSGGGGPGGSGGVGGGSGGYTYFTTVTVETLETQPGEEALQPRGTEKEPPGPTTDGVWGGGRPGDAAGPASSSTTAPAPRSSRPTEKAFTVPITDVTENALKDLDDVMKTTK
B4: LRRC4B (364-576): LRRC4B deletion construct, amino acids 364-576 of SEQ ID NO: 2 (SEQ ID NO: 61) (protein)
chain: PVIVEPPTDLNVTEGMAAELKCRTGTSMTSVNWLTPNGTLMTHGSYRVRISVLHDGTLNFTNVTVQDTGQYTCMVTNSAGNTTASATLNVSAVDPVAAGGTGSGGGGPGGSGGVGGGSGGYTYFTTVTVETLETQPGEEALQPRGTEKEPPGPTTDGVWGGGRPGDAAGPASSSTTAPAPRSSRPTEKAFTVPITDVTENALKDLDDVMKTTK
B5: LRRC4B (498-576): LRRC4B fragment, amino acids 498-576 of SEQ ID NO: 2 (SEQ ID NO: 11) (protein)
chain: QPGEEALQPRGTEKEPPGPTTDGVWGGGRPGDAAGPASSSTTAPAPRSSRPTEKAFTVPITDVTENALKDLDDVMKTTK
B6: LRRC4B (482-576): LRRC4B ectodomain fragment, amino acids 482-576 of SEQ ID NO: 2 (SEQ ID NO: 9) (protein)
chain: GGYTYFTTVTVETLETQPGEEALQPRGTEKEPPGPTTDGVWGGGRPGDAAGPASSSTTAPAPRSSRPTEKAFTVPITDVTENALKDLDDVMKTTK

How the values were obtained:
[1] = biological target: binding of FAM19A5 protein to full-length ectodomain of the LRRC4B protein (amino acids 36-576)-hFc (Homo sapiens, UniProt Q7Z5A7); test: Competitive inhibition assay, plate coated with full-length LRRC4B ectodomain; details: 100 nM coated ectodomain; FAM19A5 5 ng/mL; increasing concentrations
Sequence of binding of FAM19A5 protein to full-length ectodomain of the LRRC4B protein (amino acids 36-576)-hFc (Q7Z5A7 44-132): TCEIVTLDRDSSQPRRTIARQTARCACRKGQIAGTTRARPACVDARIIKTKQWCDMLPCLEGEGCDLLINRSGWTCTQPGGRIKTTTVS
Description: Next, to further assess the role that the binding domain of the LRRC4B protein has on the interaction between FAM19A5 protein and members of the LRRC4 protein family, a competitive inhibition assay was used to determine whether different LRRC4B deletion constructs from Example 2 could inhibit the binding of FAM19A5 to the full-length ectodomain of the LRRC4B protein (i.e., amino acids 36-576 of SEQ ID NO: 2; SEQ ID NO: 5). Briefly, 100 nM of the full-length ectodomain of the LRRC4B protein was used to coat a plate, and then recombinant FAM19A5 protein (5 ng/mL) was added to the plate in combination with the following LRRC4B deletion constructs (increasing concentrations): (1) LRRC4B (453-576) (i.e., construct #11 in Table 6); (2) LRRC4B (453-576) mutant (comprises alanine substitutions at positions 488 and 489 of SEQ ID NO: 2; SEQ ID NO: 16); (3) LRRC4B (484-576) (i.e., construct #12 in Table 6); (4) LRRC4B (482-576); (5) LRRC4B (482-497); and (6) LRRC4B (498-576). The plates were incubated at 37° C., and then, the amount of FAM19A5 bound to the coated LRRC4B ectodomain protein was measured using H1RP-conjugated anti-FAM19A5 (1-65) antibody. […]

FAM19A5 protein [2] = biological target: T1, FAM19A5 protein (Homo sapiens, UniProt Q7Z5A7); test: Co-immunoprecipitation of FLAG-tagged LRRC4 family constructs with recombinant FAM19A5 in HEK293 cells; format: binding; details: HEK293 cells expressing FLAG-tagged construct, recombinant FAM19A5 protein (1 μM) 30 minutes; anti-FLAG immunoprecipitation
T1 sequence (Q7Z5A7 44-132): as above
Description: To better understand the interaction between FAM19A5 and members of the LRRC4 protein family, HEK293 cells were modified to express a FLAG-tagged member of the LRRC4 protein family, i.e., LRRC4C protein, LRRC4 protein, or LRRC4B protein. Then, the HEK293 cells or primary cortical neurons were treated with recombinant FAM19A5 protein (1 μM) for 30 minutes, and the binding between FAM19A5 protein and the different members of the LRRC4 protein family was assessed using both co-immunoprecipitation and immunofluorescence assays.
For the co-immunoprecipitation assay, cell lysates from the different FAM19A5-treated HEK293 cells were collected and immunoprecipitated with an anti-FLAG antibody, anti-FAM19A5 (1-65) antibody, or a human IgG antibody (control). Immunoprecipitated proteins were immunoblotted with anti-FLAG and anti-FAM19A5 (3-2) antibodies. For the immunofluorescence assay, the HEK293 cells treated with the recombinant FAM19A5 protein were immunostained with anti-FAM19A5 (3-2) (to detect FAM19A5 protein expression) and anti-FLAG antibodies (to detect member of the LRRC4 protein family). The primary cortical neurons treated with the recombinant FAM19A5 protein were immunostained with anti-FAM19A5 (3-2) and anti-LRRC4B antibodies. The nuclei were stained with Hoechst33342 (blue).
To determine the specific motif or domain of the LRRC4B protein that is responsible for the binding to a FAM19A5 protein, various FLAG-tagged LRRC4B deletion constructs were generated (see Table 6 below). HEK293 cells were transfected with the different deletion constructs and then treated with recombinant FAM19A5 protein as described in Example 1. Then, the cell lysates from the different HEK293 cells were immunoprecipitated with the anti-FLAG antibody. The immunoprecipitated proteins were immunoblotted with anti-FLAG and anti-FAM19A5 (3-2) antibodies.
As described in Example 2, all members of the LRRC4 protein family were capable of binding to FAM19A5 protein to varying degrees. Therefore, to compare the bindings domains, the amino acid sequences of the LRRC4B, LRRC4, and LRRC4C proteins were aligned. […] Therefore, to assess whether the corresponding positions of LRRC4 and LRRC4C were important in the binding of these proteins to FAM19A5 protein, cDNAs encoding either (i) LRRC4C protein fragment (amino acids 354-527 of SEQ ID NO: 3; SEQ ID NO: 66) or (ii) LRRC4 protein fragment (amino acids 353-527 of SEQ ID NO: 1; SEQ ID NO: 67) were constructed (see Table 7). HEK293 cells were transfected to express either of the protein fragments and then treated with recombinant FAM19A5 protein as described in Example 1. Then, the cell lysates from the different HEK293 cells were immunoprecipitated with the anti-FLAG antibody. The immunoprecipitated proteins were immunoblotted with anti-FLAG and anti-FAM19A5 (3-2) antibodies.

FAM19A5 protein [3] = biological target: T1, FAM19A5 protein; test: ELISA binding of recombinant FAM19A5 to coated LRRC4 family ectodomains, fragments and FB peptides; details: coated protein or peptide, FAM19A5 up to 10 nM
Description: Next, to confirm the above co-immunoprecipitation results, an ELISA assay was used to measure the binding of the FAM19A5 protein to either the full-length ectodomain of members of LRRC4 protein family or various LRRC4B ectodomain protein fragments. Specifically, an ELISA plate was coated with one of the following LRRC4B ectodomain protein, which was conjugated to human Fc (100 nM/well): (1) full-length ectodomain of LRRC4 protein (amino acid residues 39-527 of SEQ ID NO: 1) (SEQ ID NO: 4); (2) full-length ectodomain of LRRC4B protein (amino acids 36-576 of SEQ ID NO: 2; i.e., construct #7 in Table 6) (SEQ ID NO: 5); (3) full-length ectodomain of LRRC4C protein (amino acids 45-527 of SEQ ID NO: 3) (SEQ ID NO: 6); (4) LRRC4B ectodomain fragment (amino acids 453-576 of SEQ ID NO: 2; i.e., construct #11 in Table 6) (SEQ ID NO: 7); (5) LRRC4B ectodomain fragment (amino acids 484-576 of SEQ ID NO: 2; i.e., construct #12 in Table 6) (SEQ ID NO: 8); (6) LRRC4B ectodomain fragment (amino acids 482-576 of SEQ ID NO: 2) (SEQ ID NO: 9); (7) LRRC4B ectodomain fragment (amino acids 482-497 of SEQ ID NO: 2) (SEQ ID NO: 10); and (8) LRRC4B ectodomain fragment (amino acids 498-576 of SEQ ID NO: 2; i.e., construct #13 in Table 6) (SEQ ID NO: 11). Then, recombinant FAM19A5 proteins (0.005, 0.01, 0.025, 0.05, 0.1, 0.25, 0.5, 1, 2.5, 5, and 10 nM) were added to the relevant wells, and the plates were incubated at 37° C. for 1 hour. Afterwards, the amount of LRRC4B-bound FAM19A5 protein was detected using […] anti-FAM19A5 (1-65) antibody.
As further confirmation, three synthetic polypeptides comprising amino acids 484-497 of SEQ ID NO: 2 (i.e., YTYFTTVTVETLET; SEQ ID NO: 65) were constructed: (1) FB-16 (GYTYFTTVTVETLETQ; SEQ ID NO: 17), (2) FB-20 ([…]; SEQ ID NO: 18), and (3) FB-28 ([…]; SEQ ID NO: 19). The peptides differed in their total length. The ability of these polypeptides to bind to recombinant FAM19A5 protein was assessed using an ELISA assay as described above.

Molecule	inhibition of FAM19A5 binding to coated full-length LRRC4B ectodomain protein [1]	binding to FAM19A5 protein (co-immunoprecipitation) (FAM19A5 protein [2])	binding to FAM19A5 protein (ELISA) (FAM19A5 protein [3])
LRRC4B (482-497): LRRC4B ectodomain fragment, amino acids 482-497 of SEQ ID NO: 2 (SEQ ID NO: 10) (GGYTYFTTVTVETLET; left off: a dimerising Fc or GST)	able to inhibit the interaction		
B1		able to bind to the FAM19A5 protein	
B2		able to bind to the FAM19A5 protein	
B3		able to bind to the FAM19A5 protein	
B4		able to bind to the FAM19A5 protein	
B5	much inferior in their ability to inhibit the interaction		failed to bind to FAM19A5
B6	able to inhibit the interaction		
